Test results from the supplement of paper PMC10567573.

B1: BTBD1 (parent)
chain: YGSIHGPTDYQVNIQIIEYEKKQT

Variants of: B1
Assay: protein stability index of a GFP-peptide fusion (GPS, HEK-293T) (PSI 1-6); higher = more stable
Details: c terminus: a fixed tail appended
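Note: lentivirally expressed fusions sorted by FACS into six bins by GFP to DsRed ratio, PSI derived from sequencing read proportions per bin multiplied by bin number.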

Row | Variant | protein stability index
1 | YGSIHGPTDYQVAIQIIEYEKKQT | 2.4
2 | YGSIHGPTDYQVCIQIIEYEKKQT | 1.7
3 | YGSIHGPTDYQVDIQIIEYEKKQT | 2.59
4 | YGSIHGPTDYQVEIQIIEYEKKQT | 2.79
5 | YGSIHGPTDYQVFIQIIEYEKKQT | 1.39
6 | YGSIHGPTDYQVGIQIIEYEKKQT | 3.34
7 | YGSIHGPTDYQVHIQIIEYEKKQT | 2.48
8 | YGSIHGPTDYQVIIQIIEYEKKQT | 1.83
9 | YGSIHGPTDYQVKIQIIEYEKKQT | 2.57
10 | YGSIHGPTDYQVLIQIIEYEKKQT | 2.22
11 | YGSIHGPTDYQVMIQIIEYEKKQT | 2.74
12 | YGSIHGPTDYQVPIQIIEYEKKQT | 3.23
13 | YGSIHGPTDYQVQIQIIEYEKKQT | 2.69
14 | YGSIHGPTDYQVRIQIIEYEKKQT | 2
15 | YGSIHGPTDYQVSIQIIEYEKKQT | 2.15
16 | YGSIHGPTDYQVTIQIIEYEKKQT | 1.82
17 | YGSIHGPTDYQVVIQIIEYEKKQT | 1.87
18 | YGSIHGPTDYQVWIQIIEYEKKQT | 1.85
19 | YGSIHGPTDYQVYIQIIEYEKKQT | 2.19
20 | YGSIHGPTDYQVNAQIIEYEKKQT | 3.47
21 | YGSIHGPTDYQVNCQIIEYEKKQT | 3.3
22 | YGSIHGPTDYQVNDQIIEYEKKQT | 3.75
23 | YGSIHGPTDYQVNEQIIEYEKKQT | 3.46
24 | YGSIHGPTDYQVNFQIIEYEKKQT | 2.92

Row | Variant | protein stability index
25 | YGSIHGPTDYQVNGQIIEYEKKQT | 3.32
26 | YGSIHGPTDYQVNHQIIEYEKKQT | 3.48
27 | YGSIHGPTDYQVNKQIIEYEKKQT | 3.75
28 | YGSIHGPTDYQVNLQIIEYEKKQT | 3.36
29 | YGSIHGPTDYQVNMQIIEYEKKQT | 3.37
30 | YGSIHGPTDYQVNNQIIEYEKKQT | 3.98
31 | YGSIHGPTDYQVNPQIIEYEKKQT | 3.77
32 | YGSIHGPTDYQVNQQIIEYEKKQT | 3.74
33 | YGSIHGPTDYQVNRQIIEYEKKQT | 3.53
34 | YGSIHGPTDYQVNSQIIEYEKKQT | 3.08
35 | YGSIHGPTDYQVNTQIIEYEKKQT | 3.58
36 | YGSIHGPTDYQVNVQIIEYEKKQT | 3.16
37 | YGSIHGPTDYQVNWQIIEYEKKQT | 2.76
38 | YGSIHGPTDYQVNYQIIEYEKKQT | 3.35
39 | YGSIHGPTDYQVNIAIIEYEKKQT | 1.96
40 | YGSIHGPTDYQVNICIIEYEKKQT | 1.43
41 | YGSIHGPTDYQVNIDIIEYEKKQT | 3.06
42 | YGSIHGPTDYQVNIEIIEYEKKQT | 2.66
43 | YGSIHGPTDYQVNIFIIEYEKKQT | 2.4
44 | YGSIHGPTDYQVNIGIIEYEKKQT | 2.47
45 | YGSIHGPTDYQVNIHIIEYEKKQT | 2.11
46 | YGSIHGPTDYQVNIIIIEYEKKQT | 2.74
47 | YGSIHGPTDYQVNIKIIEYEKKQT | 2.56
48 | YGSIHGPTDYQVNILIIEYEKKQT | 2.09

Row | Variant | protein stability index
49 | YGSIHGPTDYQVNIMIIEYEKKQT | 1.96
50 | YGSIHGPTDYQVNINIIEYEKKQT | 2.62
51 | YGSIHGPTDYQVNIPIIEYEKKQT | 3.08
52 | YGSIHGPTDYQVNIRIIEYEKKQT | 2.67
53 | YGSIHGPTDYQVNISIIEYEKKQT | 2.57
54 | YGSIHGPTDYQVNITIIEYEKKQT | 1.81
55 | YGSIHGPTDYQVNIVIIEYEKKQT | 1.6
56 | YGSIHGPTDYQVNIWIIEYEKKQT | 4.17
57 | YGSIHGPTDYQVNIYIIEYEKKQT | 1.37
58 | YGSIHGPTDYQVNIQAIEYEKKQT | 3.8
59 | YGSIHGPTDYQVNIQCIEYEKKQT | 2.96
60 | YGSIHGPTDYQVNIQDIEYEKKQT | 3.61
61 | YGSIHGPTDYQVNIQEIEYEKKQT | 3.81
62 | YGSIHGPTDYQVNIQFIEYEKKQT | 2.51
63 | YGSIHGPTDYQVNIQGIEYEKKQT | 3.31
64 | YGSIHGPTDYQVNIQHIEYEKKQT | 3.91
65 | YGSIHGPTDYQVNIQKIEYEKKQT | 3.97
66 | YGSIHGPTDYQVNIQLIEYEKKQT | 2.74
67 | YGSIHGPTDYQVNIQMIEYEKKQT | 3.32
68 | YGSIHGPTDYQVNIQNIEYEKKQT | 3.55
69 | YGSIHGPTDYQVNIQPIEYEKKQT | 2.9
70 | YGSIHGPTDYQVNIQQIEYEKKQT | 3.9
71 | YGSIHGPTDYQVNIQRIEYEKKQT | 3.46
72 | YGSIHGPTDYQVNIQSIEYEKKQT | 3.58

Row | Variant | protein stability index
73 | YGSIHGPTDYQVNIQTIEYEKKQT | 3.58
74 | YGSIHGPTDYQVNIQVIEYEKKQT | 3.15
75 | YGSIHGPTDYQVNIQWIEYEKKQT | 2.48
76 | YGSIHGPTDYQVNIQYIEYEKKQT | 2.71
77 | YGSIHGPTDYQVNIQIAEYEKKQT | 3.32
78 | YGSIHGPTDYQVNIQICEYEKKQT | 2.62
79 | YGSIHGPTDYQVNIQIDEYEKKQT | 3.63
80 | YGSIHGPTDYQVNIQIEEYEKKQT | 3.69
81 | YGSIHGPTDYQVNIQIFEYEKKQT | 2.46
82 | YGSIHGPTDYQVNIQIGEYEKKQT | 3.31
83 | YGSIHGPTDYQVNIQIHEYEKKQT | 3.22
84 | YGSIHGPTDYQVNIQIKEYEKKQT | 3.53
85 | YGSIHGPTDYQVNIQILEYEKKQT | 2.68
86 | YGSIHGPTDYQVNIQIMEYEKKQT | 2.81
87 | YGSIHGPTDYQVNIQINEYEKKQT | 3.33
88 | YGSIHGPTDYQVNIQIPEYEKKQT | 3.44
89 | YGSIHGPTDYQVNIQIQEYEKKQT | 3.35
90 | YGSIHGPTDYQVNIQIREYEKKQT | 2.87
91 | YGSIHGPTDYQVNIQISEYEKKQT | 3.31
92 | YGSIHGPTDYQVNIQITEYEKKQT | 3.47
93 | YGSIHGPTDYQVNIQIVEYEKKQT | 2.68
94 | YGSIHGPTDYQVNIQIWEYEKKQT | 2.71
95 | YGSIHGPTDYQVNIQIYEYEKKQT | 2.77
96 | YGSIHGPTDYQVNIQIIAYEKKQT | 1.71

Row | Variant | protein stability index
97 | YGSIHGPTDYQVNIQIICYEKKQT | 1.86
98 | YGSIHGPTDYQVNIQIIDYEKKQT | 2.64
99 | YGSIHGPTDYQVNIQIIFYEKKQT | 3.79
100 | YGSIHGPTDYQVNIQIIGYEKKQT | 2.24
101 | YGSIHGPTDYQVNIQIIHYEKKQT | 1.84
102 | YGSIHGPTDYQVNIQIIIYEKKQT | 3.84
103 | YGSIHGPTDYQVNIQIIKYEKKQT | 2.61
104 | YGSIHGPTDYQVNIQIILYEKKQT | 3.33
105 | YGSIHGPTDYQVNIQIIMYEKKQT | 2.44
106 | YGSIHGPTDYQVNIQIINYEKKQT | 2.17
107 | YGSIHGPTDYQVNIQIIPYEKKQT | 2.17
108 | YGSIHGPTDYQVNIQIIQYEKKQT | 2.1
109 | YGSIHGPTDYQVNIQIIRYEKKQT | 1.85
110 | YGSIHGPTDYQVNIQIISYEKKQT | 1.88
111 | YGSIHGPTDYQVNIQIITYEKKQT | 2.07
112 | YGSIHGPTDYQVNIQIIVYEKKQT | 3.19
113 | YGSIHGPTDYQVNIQIIWYEKKQT | 3.17
114 | YGSIHGPTDYQVNIQIIYYEKKQT | 3.61
115 | YGSIHGPTDYQVNIQIIEAEKKQT | 3.19
116 | YGSIHGPTDYQVNIQIIECEKKQT | 2.69
117 | YGSIHGPTDYQVNIQIIEDEKKQT | 3.76
118 | YGSIHGPTDYQVNIQIIEEEKKQT | 4.05
119 | YGSIHGPTDYQVNIQIIEFEKKQT | 2.14
120 | YGSIHGPTDYQVNIQIIEGEKKQT | 3.36

Row | Variant | protein stability index
121 | YGSIHGPTDYQVNIQIIEHEKKQT | 3.23
122 | YGSIHGPTDYQVNIQIIEIEKKQT | 2.39
123 | YGSIHGPTDYQVNIQIIEKEKKQT | 3.38
124 | YGSIHGPTDYQVNIQIIELEKKQT | 2.54
125 | YGSIHGPTDYQVNIQIIEMEKKQT | 3.03
126 | YGSIHGPTDYQVNIQIIENEKKQT | 3.29
127 | YGSIHGPTDYQVNIQIIEPEKKQT | 3.67
128 | YGSIHGPTDYQVNIQIIEQEKKQT | 3.29
129 | YGSIHGPTDYQVNIQIIEREKKQT | 3.01
130 | YGSIHGPTDYQVNIQIIESEKKQT | 3.56
131 | YGSIHGPTDYQVNIQIIETEKKQT | 2.92
132 | YGSIHGPTDYQVNIQIIEVEKKQT | 2.44
133 | YGSIHGPTDYQVNIQIIEWEKKQT | 2.5
134 | YGSIHGPTDYQVNIQIIEYAKKQT | 2.39
135 | YGSIHGPTDYQVNIQIIEYCKKQT | 1.66
136 | YGSIHGPTDYQVNIQIIEYDKKQT | 2.59
137 | YGSIHGPTDYQVNIQIIEYFKKQT | 1.84
138 | YGSIHGPTDYQVNIQIIEYGKKQT | 2.21
139 | YGSIHGPTDYQVNIQIIEYHKKQT | 2.54
140 | YGSIHGPTDYQVNIQIIEYIKKQT | 2.22
141 | YGSIHGPTDYQVNIQIIEYKKKQT | 2.35
142 | YGSIHGPTDYQVNIQIIEYLKKQT | 2.25
143 | YGSIHGPTDYQVNIQIIEYMKKQT | 2.33
144 | YGSIHGPTDYQVNIQIIEYNKKQT | 2.43

Row | Variant | protein stability index
145 | YGSIHGPTDYQVNIQIIEYPKKQT | 1.72
146 | YGSIHGPTDYQVNIQIIEYQKKQT | 2.2
147 | YGSIHGPTDYQVNIQIIEYRKKQT | 2.08
148 | YGSIHGPTDYQVNIQIIEYSKKQT | 2
149 | YGSIHGPTDYQVNIQIIEYTKKQT | 2.25
150 | YGSIHGPTDYQVNIQIIEYVKKQT | 1.84
151 | YGSIHGPTDYQVNIQIIEYWKKQT | 2.15
152 | YGSIHGPTDYQVNIQIIEYYKKQT | 1.88
153 | YGSIHGPTDYQVNIQIIEYEAKQT | 1.82
154 | YGSIHGPTDYQVNIQIIEYECKQT | 1.96
155 | YGSIHGPTDYQVNIQIIEYEDKQT | 2.46
156 | YGSIHGPTDYQVNIQIIEYEEKQT | 2.7
157 | YGSIHGPTDYQVNIQIIEYEFKQT | 3.75
158 | YGSIHGPTDYQVNIQIIEYEGKQT | 2.04
159 | YGSIHGPTDYQVNIQIIEYEHKQT | 1.83
160 | YGSIHGPTDYQVNIQIIEYEIKQT | 2.42
161 | YGSIHGPTDYQVNIQIIEYELKQT | 1.65
162 | YGSIHGPTDYQVNIQIIEYEMKQT | 2.02
163 | YGSIHGPTDYQVNIQIIEYENKQT | 2.32
164 | YGSIHGPTDYQVNIQIIEYEPKQT | 1.95
165 | YGSIHGPTDYQVNIQIIEYEQKQT | 2.52
166 | YGSIHGPTDYQVNIQIIEYERKQT | 2.25
167 | YGSIHGPTDYQVNIQIIEYESKQT | 2.13
168 | YGSIHGPTDYQVNIQIIEYETKQT | 2.24

Row | Variant | protein stability index
169 | YGSIHGPTDYQVNIQIIEYEVKQT | 1.59
170 | YGSIHGPTDYQVNIQIIEYEWKQT | 2.8
171 | YGSIHGPTDYQVNIQIIEYEYKQT | 1.92
172 | YGSIHGPTDYQVNIQIIEYEKAQT | 2.18
173 | YGSIHGPTDYQVNIQIIEYEKCQT | 1.52
174 | YGSIHGPTDYQVNIQIIEYEKDQT | 2.77
175 | YGSIHGPTDYQVNIQIIEYEKEQT | 2.96
176 | YGSIHGPTDYQVNIQIIEYEKFQT | 1.39
177 | YGSIHGPTDYQVNIQIIEYEKGQT | 2.24
178 | YGSIHGPTDYQVNIQIIEYEKHQT | 2.03
179 | YGSIHGPTDYQVNIQIIEYEKIQT | 1.56
180 | YGSIHGPTDYQVNIQIIEYEKLQT | 2.03
181 | YGSIHGPTDYQVNIQIIEYEKMQT | 2.59
182 | YGSIHGPTDYQVNIQIIEYEKNQT | 2.5
183 | YGSIHGPTDYQVNIQIIEYEKPQT | 1.72
184 | YGSIHGPTDYQVNIQIIEYEKQQT | 2.75
185 | YGSIHGPTDYQVNIQIIEYEKRQT | 2.14
186 | YGSIHGPTDYQVNIQIIEYEKSQT | 1.78
187 | YGSIHGPTDYQVNIQIIEYEKTQT | 1.93
188 | YGSIHGPTDYQVNIQIIEYEKVQT | 2.54
